Measured values taken from patent US20240392004A1 (IMMUNOWAKE, published 2024).

T1: mouse PD-1 (mouse, UniProt Q02242 25-167, limits assumed)
T1 construct: also called mPD-1
T1 sequence (looked up): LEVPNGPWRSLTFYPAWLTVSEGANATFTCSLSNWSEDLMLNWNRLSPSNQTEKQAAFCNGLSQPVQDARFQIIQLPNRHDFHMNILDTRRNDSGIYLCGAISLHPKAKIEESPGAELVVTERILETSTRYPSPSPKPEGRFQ


What was measured:
human PD-1 = biological target: T2, human PD-1 (human, UniProt Q15116 25-167, limits assumed); assay: PD-L1-Fc format, calibrated on PD-L1(wt)-Fc, method not stated
T2 construct: also called hPD-1

mouse PD-1 = biological target: T1, mouse PD-1; assay: as above

T2 sequence (Q15116 25-167 limits assumed): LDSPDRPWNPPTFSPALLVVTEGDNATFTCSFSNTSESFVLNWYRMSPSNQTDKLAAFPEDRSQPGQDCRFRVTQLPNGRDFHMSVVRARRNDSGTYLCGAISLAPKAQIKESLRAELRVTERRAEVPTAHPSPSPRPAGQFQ

Binder	Kd (human PD-1)	Kd (mouse PD-1)
PD-L1(mut3)-Fc, I54Q/R113T/M115L/S117A/G119K (Fc fusion) chain 1: FTVTVPKDLYVVEYGSNMTIECKFPVEKQLDLAALQVYWEMEDKNIIQFVHGEEDLKVQHSSYRQRARLLKDQLSLGNAALQITDVKLQDAGVYTCLIAYKGADYKRITVKVNAPYNKINQRILVVDPVTSEHELTCQAEGYPKAEVIWTSSDHQVLSGKTTTTNSKREEKLFNVTSTLRINTTTNEIFYCTFRRLDPEENHTAELVIPELPLAHPPNERDKTHTCPPCPAPEDEGGPSVFLFPPKPKDTLMISRTPEVTCVVVDVSHEDPEVKFNWYVDGVEVHNAKTKPREEQYNSTYRVVSVLTVLHQDWLNGKEYKCKVSNKALPAPIEKTISKAKGQPREPQVYVYPPSREEMTKNQVSLTCLVKGFYPSDIAVEWESNGQPENNYKTTPPVLDEDGSFALVSKLTVDKSRWQQGNVFSCSVMHEALHNHYTQKSLSLSPGK chain 2: FTVTVPKDLYVVEYGSNMTIECKFPVEKQLDLAALQVYWEMEDKNIIQFVHGEEDLKVQHSSYRQRARLLKDQLSLGNAALQITDVKLQDAGVYTCLIAYKGADYKRITVKVNAPYNKINQRILVVDPVTSEHELTCQAEGYPKAEVIWTSSDHQVLSGKTTTTNSKREEKLFNVTSTLRINTTTNEIFYCTFRRLDPEENHTAELVIPELPLAHPPNERDKTHTCPPCPAPEKKGGPSVFLFPPKPKDTLMISRTPEVTCVVVDVSHEDPEVKFNWYVDGVEVHNAKTKPREEQYNSTYRVVSVLTVLHQDWLNGKEYKCKVSNKALPAPIEKTISKAKGQPREPQVYVLPPSREEMTKNQVSLLCLVKGFYPSDIAVEWESNGQPENRYMTWPPVLDSDGSFFLYSKLTVDKSRWQQGNVFSCSVMHEALHNHYTQKSLSLSPGK	910 nM	820 nM
PD-L1(mut5)-Fc, I54Q/E58M/R113T/S117A/G119K (Fc fusion) chain 1: FTVTVPKDLYVVEYGSNMTIECKFPVEKQLDLAALQVYWMMEDKNIIQFVHGEEDLKVQHSSYRQRARLLKDQLSLGNAALQITDVKLQDAGVYTCMIAYKGADYKRITVKVNAPYNKINQRILVVDPVTSEHELTCQAEGYPKAEVIWTSSDHQVLSGKTTTTNSKREEKLFNVTSTLRINTTTNEIFYCTFRRLDPEENHTAELVIPELPLAHPPNERDKTHTCPPCPAPEDEGGPSVFLFPPKPKDTLMISRTPEVTCVVVDVSHEDPEVKFNWYVDGVEVHNAKTKPREEQYNSTYRVVSVLTVLHQDWLNGKEYKCKVSNKALPAPIEKTISKAKGQPREPQVYVYPPSREEMTKNQVSLTCLVKGFYPSDIAVEWESNGQPENNYKTTPPVLDEDGSFALVSKLTVDKSRWQQGNVFSCSVMHEALHNHYTQKSLSLSPGK chain 2: FTVTVPKDLYVVEYGSNMTIECKFPVEKQLDLAALQVYWMMEDKNIIQFVHGEEDLKVQHSSYRQRARLLKDQLSLGNAALQITDVKLQDAGVYTCMIAYKGADYKRITVKVNAPYNKINQRILVVDPVTSEHELTCQAEGYPKAEVIWTSSDHQVLSGKTTTTNSKREEKLFNVTSTLRINTTTNEIFYCTFRRLDPEENHTAELVIPELPLAHPPNERDKTHTCPPCPAPEKKGGPSVFLFPPKPKDTLMISRTPEVTCVVVDVSHEDPEVKFNWYVDGVEVHNAKTKPREEQYNSTYRVVSVLTVLHQDWLNGKEYKCKVSNKALPAPIEKTISKAKGQPREPQVYVLPPSREEMTKNQVSLLCLVKGFYPSDIAVEWESNGQPENRYMTWPPVLDSDGSFFLYSKLTVDKSRWQQGNVFSCSVMHEALHNHYTQKSLSLSPGK	1200 nM	1100 nM
PD-L1(mut4)-Fc, I54Q/E58M/M115L/S117A/G119K (Fc fusion) chain 1: FTVTVPKDLYVVEYGSNMTIECKFPVEKQLDLAALQVYWMMEDKNIIQFVHGEEDLKVQHSSYRQRARLLKDQLSLGNAALQITDVKLQDAGVYRCLIAYKGADYKRITVKVNAPYNKINQRILVVDPVTSEHELTCQAEGYPKAEVIWTSSDHQVLSGKTTTTNSKREEKLFNVTSTLRINTTTNEIFYCTFRRLDPEENHTAELVIPELPLAHPPNERDKTHTCPPCPAPEDEGGPSVFLFPPKPKDTLMISRTPEVTCVVVDVSHEDPEVKFNWYVDGVEVHNAKTKPREEQYNSTYRVVSVLTVLHQDWLNGKEYKCKVSNKALPAPIEKTISKAKGQPREPQVYVYPPSREEMTKNQVSLTCLVKGFYPSDIAVEWESNGQPENNYKTTPPVLDEDGSFALVSKLTVDKSRWQQGNVFSCSVMHEALHNHYTQKSLSLSPGK chain 2: FTVTVPKDLYVVEYGSNMTIECKFPVEKQLDLAALQVYWMMEDKNIIQFVHGEEDLKVQHSSYRQRARLLKDQLSLGNAALQITDVKLQDAGVYRCLIAYKGADYKRITVKVNAPYNKINQRILVVDPVTSEHELTCQAEGYPKAEVIWTSSDHQVLSGKTTTTNSKREEKLFNVTSTLRINTTTNEIFYCTFRRLDPEENHTAELVIPELPLAHPPNERDKTHTCPPCPAPEKKGGPSVFLFPPKPKDTLMISRTPEVTCVVVDVSHEDPEVKFNWYVDGVEVHNAKTKPREEQYNSTYRVVSVLTVLHQDWLNGKEYKCKVSNKALPAPIEKTISKAKGQPREPQVYVLPPSREEMTKNQVSLLCLVKGFYPSDIAVEWESNGQPENRYMTWPPVLDSDGSFFLYSKLTVDKSRWQQGNVFSCSVMHEALHNHYTQKSLSLSPGK	1090 nM	980 nM

These reach a lower Kd (human PD-1). Values come first.

Kd (human PD-1)	Kd (mouse PD-1)	Binder
555 nM	420 nM	PD-L1(mut6)-Fc, I54Q/E58M/R113T/M115L/G119K (Fc fusion) chain 1: FTVTVPKDLYVVEYGSNMTIECKFPVEKQLDLAALQVYWMMEDKNIIQFVHGEEDLKVQHSSYRQRARLLKDQLSLGNAALQITDVKLQDAGVYTCLISYKGADYKRITVKVNAPYNKINQRILVVDPVTSEHELTCQAEGYPKAEVIWTSSDHQVLSGKTTTTNSKREEKLFNVTSTLRINTTTNEIFYCTFRRLDPEENHTAELVIPELPLAHPPNERDKTHTCPPCPAPEDEGGPSVFLFPPKPKDTLMISRTPEVTCVVVDVSHEDPEVKFNWYVDGVEVHNAKTKPREEQYNSTYRVVSVLTVLHQDWLNGKEYKCKVSNKALPAPIEKTISKAKGQPREPQVYVYPPSREEMTKNQVSLTCLVKGFYPSDIAVEWESNGQPENNYKTTPPVLDEDGSFALVSKLTVDKSRWQQGNVFSCSVMHEALHNHYTQKSLSLSPGK chain 2: FTVTVPKDLYVVEYGSNMTIECKFPVEKQLDLAALQVYWMMEDKNIIQFVHGEEDLKVQHSSYRQRARLLKDQLSLGNAALQITDVKLQDAGVYTCLISYKGADYKRITVKVNAPYNKINQRILVVDPVTSEHELTCQAEGYPKAEVIWTSSDHQVLSGKTTTTNSKREEKLFNVTSTLRINTTTNEIFYCTFRRLDPEENHTAELVIPELPLAHPPNERDKTHTCPPCPAPEKKGGPSVFLFPPKPKDTLMISRTPEVTCVVVDVSHEDPEVKFNWYVDGVEVHNAKTKPREEQYNSTYRVVSVLTVLHQDWLNGKEYKCKVSNKALPAPIEKTISKAKGQPREPQVYVLPPSREEMTKNQVSLLCLVKGFYPSDIAVEWESNGQPENRYMTWPPVLDSDGSFFLYSKLTVDKSRWQQGNVFSCSVMHEALHNHYTQKSLSLSPGK
98 nM	110 nM	PD-L1(mut7)-Fc, I54Q/E58M/R113T/M115L/S117A (Fc fusion) chain 1: FTVTVPKDLYVVEYGSNMTIECKFPVEKQLDLAALQVYWMMEDKNIIQFVHGEEDLKVQHSSYRQRARLLKDQLSLGNAALQITDVKLQDAGVYTCLIAYGGADYKRITVKVNAPYNKINQRILVVDPVTSEHELTCQAEGYPKAEVIWTSSDHQVLSGKTTTTNSKREEKLFNVTSTLRINTTTNEIFYCTFRRLDPEENHTAELVIPELPLAHPPNERGGGGSGGGDKTHTCPPCPAPEDEGGPSVFLFPPKPKDTLMISRTPEVTCVVVDVSHEDPEVKFNWYVDGVEVHNAKTKPREEQYNSTYRVVSVLTVLHQDWLNGKEYKCKVSNKALPAPIEKTISKAKGQPREPQVYVYPPSREEMTKNQVSLTCLVKGFYPSDIAVEWESNGQPENNYKTTPPVLDEDGSFALVSKLTVDKSRWQQGNVFSCSVMHEALHNHYTQKSLSLSPGK chain 2: FTVTVPKDLYVVEYGSNMTIECKFPVEKQLDLAALQVYWMMEDKNIIQFVHGEEDLKVQHSSYRQRARLLKDQLSLGNAALQITDVKLQDAGVYTCLIAYGGADYKRITVKVNAPYNKINQRILVVDPVTSEHELTCQAEGYPKAEVIWTSSDHQVLSGKTTTTNSKREEKLFNVTSTLRINTTTNEIFYCTFRRLDPEENHTAELVIPELPLAHPPNERGGGGSGGGDKTHTCPPCPAPEKKGGPSVFLFPPKPKDTLMISRTPEVTCVVVDVSHEDPEVKFNWYVDGVEVHNAKTKPREEQYNSTYRVVSVLTVLHQDWLNGKEYKCKVSNKALPAPIEKTISKAKGQPREPQVYVLPPSREEMTKNQVSLLCLVKGFYPSDIAVEWESNGQPENRYMTWPPVLDSDGSFFLYSKLTVDKSRWQQGNVFSCSVMHEALHNHYTQKSLSLSPGK
